Source: patent publication US20200109196A1 (MOGAM INSTITUTE FOR BIOMEDICAL RESEARCH, published 2020)

T1: mCCM1
T1 construct: also called mouse CCM1; mouse CEACAM1/CD66a protein (Sino Biological); not shown: the vendor's polyhistidine tag
T1 chain: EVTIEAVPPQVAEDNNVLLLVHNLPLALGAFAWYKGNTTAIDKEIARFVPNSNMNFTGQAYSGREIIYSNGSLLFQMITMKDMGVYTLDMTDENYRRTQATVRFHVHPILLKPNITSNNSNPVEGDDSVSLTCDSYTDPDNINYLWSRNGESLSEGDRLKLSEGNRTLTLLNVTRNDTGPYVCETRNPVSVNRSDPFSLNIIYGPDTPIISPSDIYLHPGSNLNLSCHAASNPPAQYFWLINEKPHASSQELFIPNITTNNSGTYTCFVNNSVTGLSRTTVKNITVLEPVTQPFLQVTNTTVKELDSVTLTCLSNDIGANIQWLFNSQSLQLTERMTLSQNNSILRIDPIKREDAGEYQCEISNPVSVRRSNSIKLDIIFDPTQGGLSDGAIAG

T2: recombinant human CEACAM-6/CD66c protein (R&D systems; Cat. No. 3934-CM) (human, UniProt P40199 35-320)
T2 construct: Bought protein; also called HCCM6
T2 sequence (looked up): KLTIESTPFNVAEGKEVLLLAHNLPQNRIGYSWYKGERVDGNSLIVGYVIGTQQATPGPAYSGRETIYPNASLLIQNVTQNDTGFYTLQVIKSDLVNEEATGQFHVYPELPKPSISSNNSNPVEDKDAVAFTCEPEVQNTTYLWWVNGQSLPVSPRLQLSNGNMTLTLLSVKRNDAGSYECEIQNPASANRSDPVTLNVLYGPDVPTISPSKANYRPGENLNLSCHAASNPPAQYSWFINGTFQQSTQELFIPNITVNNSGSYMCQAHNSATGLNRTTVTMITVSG


What was measured:
[1] = target: T3, BSA (bovine, UniProt P02769); assay: ELISA on coated antigen (0.25 µg/ml), HRP anti-human IgG Fc, OD450
T3 construct: blank antigen; also called BSA protein; bovine serum albumin
T3 sequence (P02769 25-607 limits assumed): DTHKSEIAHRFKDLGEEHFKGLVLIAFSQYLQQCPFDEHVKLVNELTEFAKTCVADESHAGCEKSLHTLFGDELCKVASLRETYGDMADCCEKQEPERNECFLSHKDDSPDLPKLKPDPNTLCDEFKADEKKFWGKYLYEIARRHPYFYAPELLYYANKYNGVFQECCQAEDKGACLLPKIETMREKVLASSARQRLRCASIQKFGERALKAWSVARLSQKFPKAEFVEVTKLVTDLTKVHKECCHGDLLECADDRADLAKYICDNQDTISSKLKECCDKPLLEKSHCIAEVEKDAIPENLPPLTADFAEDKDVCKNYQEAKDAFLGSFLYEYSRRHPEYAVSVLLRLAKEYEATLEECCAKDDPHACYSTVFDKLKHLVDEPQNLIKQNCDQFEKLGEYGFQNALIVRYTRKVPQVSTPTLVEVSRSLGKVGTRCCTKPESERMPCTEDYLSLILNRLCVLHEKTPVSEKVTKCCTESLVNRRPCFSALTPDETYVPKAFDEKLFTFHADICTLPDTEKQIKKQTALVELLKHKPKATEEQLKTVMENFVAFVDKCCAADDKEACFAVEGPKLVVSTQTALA
Description: (§1) All of the recombinant human CEACAM-1/CD66a protein (R&D systems; Cat No. 2244-CM, HCCM1), recombinant human CEACAM-5/CD66e protein (R&D systems; Cat. No. 4128-CM, HCCM5), recombinant human CEACAM-6/CD66c protein (R&D systems; Cat. No. 3934-CM, HCCM6), recombinant human CEACAM-3/CD66d protein (Sino Biological; Cat. No. 11933-H08H, HCCM3), human B7-H5/Gi24/VISTA protein (Sino Biological; Cat. No. 13482-H08H, HVISTA), recombinant human CEACAM-1/CD66a protein Bulk (R&D systems; Cat. No. 2244-CM, HCCM1 (bulk)), recombinant human CEACAM1-N domain-Kappa protein (Mogam, in-house production, HCCM1-N domain-kappa), and BSA protein (2.5 μg each) were dissolved in 10 ml of PBS, respectively, and dispensed into a 96-well plate at 100 μl/well, which was incubated at 4° C. overnight. Thereafter, each well was treated with 300 μl of 1% (v/v) bovine serum albumin, and incubated at 37° C. for 1 hour.
(§2) The diluted antibodies were dispensed into each well coated with each protein at 100 μl/well, and incubated at 37° C. for 1 hour. Then, each well was washed 3 times with a washing buffer prepared by diluting 10 μl of Tween 20 (Sigma-Aldrich; Cat. No. P9146) in 990 μl of PBS. Thereafter, 2 μl of HRP-conjugated human anti-IgG-Fc antibody (anti-human IgG Fc, Sigma Cat. No. A0170) was diluted in 10 ml of PBS, added to the wells at 100 μl/well, and incubated for 1 hour.
(§3) After completion of the reaction, the wells were washed three times with the washing buffer, and 100 μl of TMB solution was added to each well to induce color development. Then, 100 μl of 2 M H₂SO₄ was added to each well to stop the reaction, and the absorbance was measured at a wavelength of 450 nm.

[2] = target: T4, HVISTA; assay: as above
T4 construct: unrelated control antigen; also called human B7-H5/Gi24/VISTA protein (Sino Biological; Cat. No. 13482-H08H); not shown: the vendor's polyhistidine tag
T4 sequence (chain, as listed by the source limits assumed): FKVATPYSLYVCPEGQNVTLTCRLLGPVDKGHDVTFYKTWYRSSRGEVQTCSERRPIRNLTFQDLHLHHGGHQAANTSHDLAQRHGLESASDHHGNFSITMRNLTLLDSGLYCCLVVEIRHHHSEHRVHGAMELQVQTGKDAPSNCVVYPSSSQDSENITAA
Description: as §1, §2, §3

[3] = target: T1, mCCM1; assay: ELISA on coated antigen (0.25 µg/ml), HRP anti-human IgG Fab, OD450
Description: (§4) All of the recombinant human CEACAM-1/CD66a protein (R&D systems; Cat. No. 2244-CM, HCCM1), recombinant human CEACAM-5/CD66e protein (R&D systems; Cat. No. 4128-CM, HCCM5), recombinant human CEACAM-6/CD66c protein (R&D systems; Cat. No. 3934-CM, HCCM6), recombinant human CEACAM-3/CD66d protein (Sino Biological; Cat. No. 11933-H08H, HCCM3), recombinant mouse PD-1 Fc chimeric protein (R&D systems; Cat. No. 1021-PD, mPD-1-Fc), recombinant CEACAM1-Fc (IgG4) protein (Mogam, in-house production, HCCM1-Fc), recombinant human CEACAM-1/CD66a protein Bulk (R&D systems; Cat. No. 2244-CM, HCCM1 (bulk)) and mouse CEACAM1/CD66a protein (Sino Biological; Cat. No. 50571-M08H, mouse CCM1) (2.5 μg each) were dissolved in 10 ml of PBS, respectively and dispensed into a 96-well plate (Nunc; Cat. No. 467679) at 100 μl/well, which was incubated overnight at 4° C. Thereafter, each well was treated with 300 μl of 1% (v/v) bovine serum albumin, which was incubated at 37° C. for 1 hour.
(§5) The diluted antibodies were dispensed into each well coated with each protein at 100 μl/well, which was incubated at 37° C. for 1 hour. Then, each well was washed 3 times with a washing buffer prepared by diluting 10 μl of Tween 20 (Sigma-Aldrich; Cat. No. P9146) in 990 μl of PBS. Thereafter, 2 μl of HRP-conjugated human anti-IgG-Fab antibody (anti-human IgG Fab; Sigma; Cat. No. A0293) was diluted in 10 ml of PBS, added to the wells at 100 μl/well, and incubated for 1 hour.
as §3

[4] = target: T2, recombinant human CEACAM-6/CD66c …; assay: as above
Description: as §4, §5, §3

Binder | binding result [1] | binding result [2] | binding result [3] | binding result [4]
C15 (antibody, human IgG4 S228P, lambda, V domains shown) VH: EVQLLESGGGLVQPGGSLRLSCAASGFTFSSYSMSWVRQAPGKGLEWVSSISPNGGNKYYADSVKGRFTISRDNSKNTLYLQMNSLGAEDTAVYYCAKDPYNIYQPLFDYWGQGTLVTVSS VL: QSVLTQPLSASGTPGQRVTISCSGSSSNIGNNYVNWYQQLPGTAPKLLIYANSNRPSGVPDRFSGSKSGTSASLAISGLRSEEEADYYCGTWDASLSAYVFGGGTKLTVLG | no binding (tested: 3 µg/ml (single concentration)) | no binding (tested: 3 µg/ml (single concentration)) | no binding (tested: 3 µg/ml (single concentration)) | no binding (tested: 3 µg/ml (single concentration))
C19 (antibody, human IgG4 S228P, lambda, V domains shown) VH: EVQLLESGGGLVQPGGSLRLSCAASGFTFSGYAMSWVRQAPGKGLEWVSGIYHDGGSTYYADSVKGRFTISRDNSKNTLYLQMNSLRAEDTAVYYCARVTVLCTTYGCSSYDGMDVWGQGTLVTVSS VL: not shown | no binding (tested: 3 µg/ml (single concentration)) | no binding (tested: 3 µg/ml (single concentration)) | no binding (tested: 3 µg/ml (single concentration)) | no binding (tested: 3 µg/ml (single concentration))
C18 (antibody, human IgG4 S228P, lambda, V domains shown) VH: EVQLLESGGGLVQPGGSLRLSCAASGFTFSNYDMSWVRQAPGKGLEWVSGISHSSGSKYYADSVKGRFTISRDNSKNTLYLQMNSLRAEDTAVYYCARDPLPCLIPKCSYYYAMDVWGQGTLVTVSS VL: QSVLTQPPSAPGTPGQRVTISCSGSSSNIGSNAVTWYQQLPGTAPKLLIYADSHRPSGVPDRFSGSKSGTSASLAISGLRSEDEADYYCGSWDDSLNAYVFGGGTKLTVLG | no binding (tested: 3 µg/ml (single concentration)) | no binding (tested: 3 µg/ml (single concentration)) | no binding (tested: 3 µg/ml (single concentration)) | no binding (tested: 3 µg/ml (single concentration))
C17 (antibody, human IgG4 S228P, lambda, V domains shown) VH: EVQLLESGGGLVQPGGSLRLSCAASGFTFSDYSMSWVRQAPGKGLEWVSVIYPDDGNTYYADSVKGRFTISRDNSKNTLYLQMNSLRAEDTAVYYCARGSIWWLSLIPSSYNAMDVWGQGTLVAVSS VL: QSVLTQPPSASGTPGQRVTISCSGSSSNIGNNAVNWYQQLPGTAPKLLIYANSHRPSGVPDRFSGSKSGTSASLAISGLRSEDEADYYCGAWDASLNGYVFGGGTKLTVLG | no binding (tested: 3 µg/ml (single concentration)) | no binding (tested: 3 µg/ml (single concentration)) | no binding (tested: 3 µg/ml (single concentration)) | no binding (tested: 3 µg/ml (single concentration))
C25 (antibody, human IgG4 S228P, lambda, V domains shown, Made in ExpiHEK293F cells, protein A purified. huIgG4 is the isotype control and anti-huIgG4 the detection reagent; the isotype is not otherwise stated; also called anti-CEACAM1 antibody C25) VH: EVQLLESGGGLVQPGGSLRLSCAASGFTFSNYAMSWVRQAPGKGLEWVSVISHGGGSIYYADSVKGRLTISRDNSKNTLYLQMNSLRAEDTAVYYCARDPTKGYAPTFDYWGQGTLVTVSS VL: QSVLTQPPSASGTPGQRVTISCSGSSSNIGNNYVSWYQQLPGTAPKLLIYADSKRPSGVPDRFSGSKSGTSASLAISGLRSEDEADYYCGAWDASLNGYVFGGGTKLTVLG | no binding (tested: 3 µg/ml (single concentration)) | no binding (tested: 3 µg/ml (single concentration)) | no binding (tested: 3 µg/ml (single concentration)) | no binding (tested: 3 µg/ml (single concentration))
C26 (antibody, human IgG4 S228P, lambda, V domains shown) VH: EVQLLESGGGLVQPGGSLRLSCAASGFTFSGYDMSWVRQAPGKGLEWVSWISYGGGSIYYADSVKGRFTISRDNSKNTLYLQMNSLRAEDTAVYYCAKDRLPQKAVRHSYANGMDVWGQGTLVTVSS VL: QSVLTQPPSASGTPGQRVTISCSGSSSNIGNNYVTWYQQLPGTAPKLLIYADSHRPSGVPDRFSGSKSGTSASLAISGLRSEDEADYYCGAWDYSLSGYVFGGGTKLTVLG | no binding (tested: 3 µg/ml (single concentration)) | no binding (tested: 3 µg/ml (single concentration)) | no binding (tested: 3 µg/ml (single concentration)) | no binding (tested: 3 µg/ml (single concentration))
C22 (antibody, human IgG4 S228P, lambda, V domains shown) VH: EVQLLESGGGLVQPGGSLRLSCAASGFTFSDYDMSWVRQAPGKGLEWVSMIYSGSSSKYYADSVKGRFTISRDNSKNTLYLQMNSLRAEDTAVYYCAKAPLPFYFRPKSYYYAMDVWGQGTLVTVSS VL: QSVLTQPPSASGTPGQRVTISCSGSSSNIGSNNVTWYQQLPGTAPKLLIYANSHRPSGVPDRFSGSKSGTSASLAISGLRSEDEADYYCGSWDSSLNAYVFGGGTKLTVLG | no binding (tested: 3 µg/ml (single concentration)) | no binding (tested: 3 µg/ml (single concentration)) | no binding (tested: 3 µg/ml (single concentration)) | no binding (tested: 3 µg/ml (single concentration))
